# B1: ETS-like protein pointed (Drosophila melanogaster (Fruit fly)), P51023 (parent)
# chain: MELAICKTDLSATKFMLPPALPSSAAIGSSSAVASTASHFLDKAAHELFQLNAINGHLFKSPASSHLNSVGSPSILSQLNGIGNSGNHSGQVSTMRLKKNRKVTFLSSLVESKNIFIKEEPIHGCKDLCSLSDISDHEASLEVPTALPPLTPGTNRKVNEVLKASFASWEKEVQKCNITKDPREWTEEHVIYWLNWAKNEFSLVSMNLDPFYKMKGRAMVDLGKEKFLAITPPFTGDILWEHLDILQKDCEKPNEDIVHGNSFESATTASVCGSDHQVANYPNETHANSNNSSINSRLSMDYVTSAGNSDNKNFHRATPHSHNGYNTSNTHDRINNSTPPQQQQSQQPTVNGSGSASSNNNNSMLPPAVQQSNNENNNTSSSNTNNSSNNNNNSGGSNNSNAGSNNNNNNNNNINFMAAAAIFQHHLKEEPGTQNGNIGGYGGGSNSQNDPTDLSSYGLPAHLAAYGGGSGSGPTGGRSSGGGGDESDYHSTISAQDHQSQQSSGGNGSGGASGGSTGNSNGYLDSSSEFYGSYAGRNRFHDGYPPEFTPYDAQSFQSMGPQPTAMDQWGAAHAHQHPAAYMSTLGLDKGLLGGYTTQGGVPCFTGSGPIQLWQFLLELLLDKTCQSFISWTGDGWEFKLTDPDEVARRWGIRKNKPKMNYEKLSRGLRYYYDKNIIHKTAGKRYVYRFVCDLQNLVGHTPEELVAKYDLKIEKKDVD
# Variants of: B1
# Settings: with erka_drome rl
row,effect of a mutation on the interaction,Variant
1,decreasing interaction,L228R
2,decreasing interaction,F234A
3,disrupting interaction,T151A

# — IntAct's records for PubMed 16362034
